± gives the standard deviation of the averaged measurements.

The series concerns ATP. The series is described as follows: switch fluorescence ratio, 500 uM ATP over buffer (Cy3 cluster intensity, sum of 5 cycles each) (fold (ratio)); higher = stronger signal-on switching upon ATP binding; sequences stand for … in TCGTCGGCAGCGTCAGATGTGTATAAGAGACAGTTTTTTTTTTTTTTTTTTTTTTTTT…TC. To be noted: aptamer strand: ATP DNA aptamer (quencher-CACCTGGGGGAGTATTGCGGAGGAAGG + anchor), 100 nM annealed; ATP concentration: 500 uM. The method, boiled down: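 Exposure to 500 uM ATP lasted 15 min at 22 °C before imaging, and a selection-buffer image was taken beforehand, for Cy3-labelled switching-strand clusters on a modified Illumina MiSeq flow-cell annealed to 100 nM quencher-labelled ATP aptamer. Five buffer/ATP cycles were run with NaOH stripping and re-annealing between them. The fluorescence ratio per cluster is summed target-cycle over summed buffer-cycle Cy3 intensity, averaged per switch-domain sequence. Clusters outside 100-1000 RFU were excluded.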

Consider TGCAAGAGTT, for which the switch fluorescence ratio worked out at 1.01 ± 0.014. Consider AGGAAAGAAT, for which the switch fluorescence ratio turned out to be 0.968 ± 0.056. With TACTTTTTAG, the switch fluorescence ratio was 1.02 ± 0.029. As for CGTTTAGTAG, the switch fluorescence ratio stood at 1.03 ± 0.013. On to AGTAATACGG, for which the switch fluorescence ratio is 1.3 ± 0.29. For CGGATCGATT, the switch fluorescence ratio came to 0.9907 ± 0.0018. TGACTTATGG: the switch fluorescence ratio was found to be 0.983 ± 0.08. Turning to CGGGTCGGCG, the switch fluorescence ratio amounted to 1.01 ± 0.049.

Take TTCTCGGGGA: the switch fluorescence ratio came out at 0.9908 ± 0.0097. Take CGTTTCGCCC: the switch fluorescence ratio stood at 1.04 ± 0.038. Take TCTTGAAATT: the switch fluorescence ratio amounted to 1.021 ± 0.0031. Regarding GCAGATCGTG, the switch fluorescence ratio was 1.02 ± 0.026. TCGCGTCTCA: the switch fluorescence ratio worked out at 1.01 ± 0.046. As for GGCTGGGCTG, the switch fluorescence ratio was determined as 0.991 ± 0.029. Take AGTGCTTGAG: the switch fluorescence ratio came out at 0.977 ± 0.043. For TGTTGTAAGT the value was 0.984 ± 0.026. In the case of GTTGAAAAAA, the switch fluorescence ratio is 1.31 ± 0.73. Regarding CACATTATGA, the switch fluorescence ratio came out at 1.04 ± 0.014. AGGGTGTCCA: the switch fluorescence ratio stood at 0.973 ± 0.028.

As to ATAAGGGCGT, the switch fluorescence ratio came out at 1.001 ± 0.0065. For TGAGTGTCTG the value was 0.966 ± 0.019. The same measure for AGTCGGCTGT: 0.99449 ± 0.00015; for TCAGTTTACT: 0.998 ± 0.025. In the case of AAATGAAGGG, the switch fluorescence ratio turned out to be 1 ± 0.058. In the case of GCTGGGTCTG, the switch fluorescence ratio is 1 ± 0.017. For the sequence GGGAATAGAT, the switch fluorescence ratio was 0.9835 ± 0.002. As to GTTTAGGGGA, the switch fluorescence ratio is 0.999 ± 0.015. The same measure for GGAATTACCG: 1.031 ± 0.0025.

For the sequence TTCGGGTTAT, the switch fluorescence ratio is 1.01 ± 0.049. As to GGGGGGATGC, the switch fluorescence ratio amounted to 1.07 ± 0.13. With TGCGTAGAGG, the switch fluorescence ratio stood at 1.037 ± 0.006. GATGGTTTCC: the switch fluorescence ratio stood at 1.02 ± 0.0017. The same measure for ATGAAGAGAT: 0.9886 ± 0.0064; for TCGGCGTATC: 0.979 ± 0.01. Consider GTCGATTAGT, for which the switch fluorescence ratio was found to be 0.944 ± 0.033. The same measure for ATAGTCCAGC: 0.988 ± 0.035; for AGTTTTTGAT: 0.9692 ± 0.0068; for TTTATGTCGC: 1.01 ± 0.054.

For the sequence TTTGATGTGC, the switch fluorescence ratio came to 1.07 ± 0.064. For ATGGAATCAG the value was 1.015 ± 0.01. For ACAGGTTTTT the value was 1.01 ± 0.023; for GGTGGCTTTT, 1.02 ± 0.099. Consider TCGTTAGGTG, for which the switch fluorescence ratio came out at 1.03 ± 0.025. Consider GTTCTCAGTG, for which the switch fluorescence ratio turned out to be 1.01 ± 0.03. On to GAGGAAGCGA, for which the switch fluorescence ratio is 1.18 ± 0.059. With TGAGGAACCT, the switch fluorescence ratio worked out at 1.77 ± 0.098. On to GAATGAGTCT, for which the switch fluorescence ratio came to 1.01 ± 0.091.

Regarding TAAAGTTAGA, the switch fluorescence ratio was found to be 0.989 ± 0.012. For TATGAAGCCT the value was 1.16 ± 0.02. Regarding AATGTGGGAA, the switch fluorescence ratio stood at 1.01 ± 0.044. For the sequence TCTATAGTTC, the switch fluorescence ratio turned out to be 1.01 ± 0.034. GTTTTTAATT: the switch fluorescence ratio was 0.95322 ± 0.0005. With ACTAAAGGCT, the switch fluorescence ratio worked out at 1.01 ± 0.015. Turning to GAAATACCTT, the switch fluorescence ratio amounted to 0.976 ± 0.0021. The same measure for GGAGGTGTTA: 1.01 ± 0.031.

AATTATCGAC: the switch fluorescence ratio worked out at 1 ± 0.031. As to AGGCCACTGA, the switch fluorescence ratio is 1.034 ± 0.0011. On to TGGGCCTTGT, for which the switch fluorescence ratio is 1.023 ± 0.0033. As to GCGGGGGAAC, the switch fluorescence ratio was found to be 1.018 ± 0.0055.

Regarding GGACTGAAGT, the switch fluorescence ratio came out at 1.02 ± 0.038.

In the case of TGGCTTTTTT, the switch fluorescence ratio is 0.998 ± 0.027.

Turning to AGGTTGTGGC, the switch fluorescence ratio turned out to be 0.992 ± 0.033. Turning to TATTTAAGTG, the switch fluorescence ratio was 1.039 ± 0.0092.

Turning to ATTGAGCGGA, the switch fluorescence ratio worked out at 1.0358 ± 0.001. As to GCTTTTTAGT, the switch fluorescence ratio came out at 1.006 ± 0.0021.

Consider ATTAAGGGTG, for which the switch fluorescence ratio was 1.04 ± 0.093. As to AGGGCTATGT, the switch fluorescence ratio was 0.9804 ± 0.005. As for CCCTATATAG, the switch fluorescence ratio is 1.01 ± 0.011. For the sequence TGTTGCTCCA, the switch fluorescence ratio is 1.05 ± 0.082.

TTGAGCTTAT: the switch fluorescence ratio worked out at 0.993 ± 0.018. As to TTTGTGAGT, the switch fluorescence ratio amounted to 0.979 ± 0.017. On to GAGCACGTAT, for which the switch fluorescence ratio came out at 1.03 ± 0.063.

As for TTGGGGGGCC, the switch fluorescence ratio was 1.01 ± 0.031. Turning to ATTTCAGTTG, the switch fluorescence ratio amounted to 1.011 ± 0.006. With TTCGGCTTGA, the switch fluorescence ratio came out at 0.994 ± 0.028. On to TGTTATATGT, for which the switch fluorescence ratio was 1.01 ± 0.012. As to TAGTTTTTCT, the switch fluorescence ratio was 0.971 ± 0.022. On to TACAGGGGGC, for which the switch fluorescence ratio was found to be 1.12 ± 0.12.

Consider TAATATGGGT, for which the switch fluorescence ratio is 0.988 ± 0.023. In the case of AGTGGGGGGG, the switch fluorescence ratio amounted to 0.991 ± 0.049. On to TGCTAAAGGG, for which the switch fluorescence ratio was 0.984 ± 0.036. As for CTCAGTTATG, the switch fluorescence ratio came to 1.0176 ± 0.00079. Turning to TTACTGGGGG, the switch fluorescence ratio turned out to be 0.999 ± 0.027. As to GAGGTAGGCC, the switch fluorescence ratio worked out at 1.048 ± 0.0066.

As for AAGTATATGT, the switch fluorescence ratio was determined as 0.998 ± 0.027. For the sequence CAGGTAGGCG, the switch fluorescence ratio amounted to 0.984 ± 0.016. Regarding AAGATGTAAT, the switch fluorescence ratio stood at 1.01 ± 0.0079.

As for GGGTTTTATC, the switch fluorescence ratio amounted to 0.999 ± 0.035. Take GCATAAATAG: the switch fluorescence ratio turned out to be 1.02 ± 0.018. GCATAAGCTC: the switch fluorescence ratio is 1.06 ± 0.062. For ACATGGGGAA the value was 0.994 ± 0.012; for CGTGCGGGGG, 1.01 ± 0.035.

With ACTCATTCTC, the switch fluorescence ratio came out at 1.04 ± 0.033. Regarding AGATTAATTT, the switch fluorescence ratio came out at 0.986 ± 0.021. Take CATAGCGTTA: the switch fluorescence ratio came out at 1.03 ± 0.011. As for GACATTTGTT, the switch fluorescence ratio was found to be 0.986 ± 0.014.

As for ATCTGTGGGG, the switch fluorescence ratio was determined as 0.9962 ± 0.0026.

On to TTGGGGCCAT, for which the switch fluorescence ratio worked out at 0.999 ± 0.029. With CGGCGGCACC, the switch fluorescence ratio is 1.0893 ± 0.00071. For the sequence CTTGTAACTT, the switch fluorescence ratio is 1.01 ± 0.032. For GGGGCATGCA the value was 0.9897 ± 0.0081; for TAGCTGACTG, 1.02 ± 0.04. The same measure for CTGGGGGGGG: 1 ± 0.038; for TGGTTTAAGG: 0.9844 ± 0.0088; for GAATAAGGGA: 1 ± 0.014. For CCCGGGGGT the value was 1.13 ± 0.2; for AAAGTATTAA, 1.014 ± 0.0026; for GAAATTAGCC, 1.053 ± 0.0092. Take ATTGATTGAA: the switch fluorescence ratio came to 1.01 ± 0.012. Turning to TCATGACGGT, the switch fluorescence ratio was 1.011 ± 0.0028. Turning to GATTTTTGGA, the switch fluorescence ratio came to 0.968 ± 0.03. Regarding CTATGAATGG, the switch fluorescence ratio was found to be 0.975 ± 0.057. TCTGAGCGGA: the switch fluorescence ratio stood at 1.14 ± 0.13. On to TTTGCATCTT, for which the switch fluorescence ratio amounted to 0.9984 ± 0.0022.

In the case of TAAGAAAATT, the switch fluorescence ratio came to 0.993 ± 0.023. For TGCTTTCGTC, the switch fluorescence ratio was 0.945 ± 0.031. The same measure for ACCCCAAATG: 1.124 ± 0.0098; for TCAGAAGGTG: 1.59 ± 0.079. On to TTGCCCGAA, for which the switch fluorescence ratio came out at 1.01 ± 0.043. For ATTAGTTTGA, the switch fluorescence ratio came to 0.985 ± 0.014.

The values above are taken from the supplement of paper PMC10126150.
